Patent publication US20260258083A1 (Amgen, published 2026)
Where no end group is shown, it is not given here. [ ]: non-standard residue; d: D form. pGlu = O=C1CC[C@@H](C(=O)O)N1

Legend:
[1] = target: T1, scFv region of I2C; test: co-crystal structure used as input for the modelling
T1 construct: also called VH-VL of I2C

[2] = target: T2, FLT3xCD3 TCE SEQ ID NO 93; test: KinExA equilibrium in solution, KD relative to peptide concentration, TCE 125 pM
T2 construct: Single-chain scFv-scFv-scFc T cell engager; also called FLT3×CD3ε TCE; FLT3_7 A8xCD3-scFc Bispecific HLE molecule

[3] = target: T2, FLT3xCD3 TCE SEQ ID NO 93; test: KinExA equilibrium in solution, KD relative to peptide concentration, TCE 250 pM; alias in this row reads 20 k Linear Thioether

Binder	binding result [1]	Kd [2] [nM]	Kd [3] [nM]
[pGlu]DGNEELK (Position 1 is written E for pE; also called CD3ε peptide) [pE-DGNEELK]	binds		
[pGlu]DGNEELKGK-OH (also: Lys 10 side chain linked via thioether (acetamide) to 4-arm 20 kDa PEG, TCE masking molecule) [73135-2]		0.0122	0.153
